To fix the notation:
B1: factor inhibiting HIF-1 (FIH-1), full-length [human] / Mint3NT, N-terminal fragment (1–214) of Mint3 [human] (parent)
chain 1: MDFPTISRSPSGPPAMDLEGPRDILVPSEDLTPDSQWDPMPGGPGSLSRMELDESSLQELVQQFEALPGDLVGPSPGGAPCPLHIATGHGLASQEIADAHGLLSAEAGRDDLLGLLHCEECPPSQTGPEEPLEPAPRLLQPPEDPDEDSDSPEWVEGASAEQEGSRSSSSSPEPWLETVPLVTPEEPPAGAQSPETLASYPAPQEVPGPCDHED
chain 2: MAATAAEAVASGSGEPREEAGALGPAWDESQLRSYSFPTRPIPRLSQSDPRAEELIENEEPVVLTDTNLVYPALKWDLEYLQENIGNGDFSVYSASTHKFLYYDEKKMANFQNFKPRSNREEMKFHEFVEKLQDIQQRGGEERLYLQQTLNDTVGRKIVMDFLGFNWNWINKQQGKRGWGQLTSNLLLIGMEGNVTPAHYDEQQNFFAQIKGYKRCILFPPDQFECLYPYPVHHPCDRQSQVDFDNPDYERFPNFQNVVGYETVVGPGDVLYIPMYWWHHIESLLNGGITITVNFWYKGAPTPKRIEYPLKAHQKVAIMRNIEKMLGEALGNPQEVGPLLNTMIKGRYN

In the experiment the parent is B1. Briefly: ITC. The note with it: with Mint3NT, measured three times for each FIH-1 mutant.
chain 2 Y71A: the screen value is -28.9 kcal/mol.
Turning to chain 2 K75A, the screen value was 20.2 kcal/mol.
For chain 2 E79A the value was -28.5 kcal/mol.
Then chain 2 D248A, with -28.4 kcal/mol; and chain 2 E250A, with 20.1 kcal/mol.
As for chain 2 N171A, the screen value is 21.4 kcal/mol.
For chain 2 E29A the value was 19.5 kcal/mol.

(Values after article PMC8571082.)
